# Reference: US20240425583A1, “METHODS AND COMPOSITIONS RELATED TO MCL-1 AND BIM HETERODIMER ANTIBODIES” (priority 2021, published 2024)
# Columns and labels:
# MCL-1/BIM heterodimer = molecular target: T1, MCL-1/BIM heterodimer (Homo sapiens, UniProt Q07820); experiment: ELISA: Mcl-1-GST on glutathione-coated plates with or without Bim-BH3 peptide, detected with HSMCB antibody; format: binding; conditions: Mcl-1-GST with or without Bim-BH3 peptide, FIG. 1
# T1 construct: mutated to delete their transmembrane domains; made in house; host or cells: E. coli BL21 (D3)
# Description: Genes encoding human Mcl-1 were cloned and mutated to delete their transmembrane domains. The mutated genes were then linked to a nucleotide sequence encoding Glutathione-S-transferase (GST) and cloned into pGEX 4T-1 to obtain DNA constructs for expressing Mcl-1(Δ)-GST fusion proteins. DNA constructs for expressing full length human Bim, all fused with GST, were prepared by recombinant technology.
# The plates were then washed three times with PBS containing 0.05% TWEEN 20™ (PBST) and blocked with 50 μl PBS containing 2.0% bovine serum albumin (BSA) at room temperature for 1 hour. The plates were then washed again three times with PBST. Afterwards, 100 μl of a hybridoma supernatant was added to designated wells. The plates were incubated at room temperature for 1 hour on a shaker apparatus and then washed three times with wash buffer. Next, 50 μl of HRP-conjugated goat anti-mouse IgG Fc (Cappel Laboratories), diluted 1:1000 in assay buffer (0.5% bovine serum albumin, 0.05% % TWEEN 20™, 0.01% Thimersol in PBS), was added to each well. […] 50 μl of […] was added to each well to stop the reaction and absorbance at 450 nm in each well is read in a microliter plate reader. […]
# [1] = format: physicochemical
# Description: FIG. 2 is a graph showing the selective binding of the MCL-1/BIM heterodimer (HSMCB) antibody to the MCL-1/BIM heterodimer, and the stability of this antibody at 4° C. for about 2 months. Each line in the graph follows the order in the legend (i.e., the top line is for sample 5-01-20b, the next line is for 5-22-20b, the next line is for 5-29b; this pattern is throughout the entire graph). The antibody in this figure is an antibody having CDRs selected from SEQ ID NO: 9, SEQ ID NO: 10, SEQ ID NO: 11, SEQ ID NO: 12, SEQ ID NO: 13, SEQ ID NO: 14, and having a variable heavy chain selected from SEQ ID NO: 15, and a variable light chain selected from SEQ ID NO: 16. […]
# [2] = test system: FFPE breast cancer patient biopsy (BCa_01 NV401); experiment: IHC staining of serial sections from a FFPE breast cancer patient biopsy; design: species or system human; conditions: compared with HSBXB, 10× objective, FIG. 8
# Text: The image on the left side of FIG. 8 is of an HSMCB antibody having CDRs selected from SEQ ID NO: 9, SEQ ID NO: 10, SEQ ID NO: 11, SEQ ID NO: 12, SEQ ID NO: 13, SEQ ID NO: 14, and having a variable heavy chain selected from SEQ ID NO: 15, and a variable light chain selected from SEQ ID NO: 16.
# In these experiments, PDX stains were used for image analysis software from Leica and Halo were compared for quantitative analysis.
# Mcl-1 Bim-BH3 complex = molecular target: T2, Mcl-1 Bim-BH3 complex (Homo sapiens, UniProt Q07820); experiment: HSMCB on Mcl-1-Bim non-covalently bound beads; format: binding; conditions: Bim-BH3 10 uM to 50 uM, FIG. 14
# T2 construct: mutated to delete their transmembrane domains; made in house; host or cells: E. coli BL21 (D3)
# T2 sequence (Q07820 1-327 limits assumed): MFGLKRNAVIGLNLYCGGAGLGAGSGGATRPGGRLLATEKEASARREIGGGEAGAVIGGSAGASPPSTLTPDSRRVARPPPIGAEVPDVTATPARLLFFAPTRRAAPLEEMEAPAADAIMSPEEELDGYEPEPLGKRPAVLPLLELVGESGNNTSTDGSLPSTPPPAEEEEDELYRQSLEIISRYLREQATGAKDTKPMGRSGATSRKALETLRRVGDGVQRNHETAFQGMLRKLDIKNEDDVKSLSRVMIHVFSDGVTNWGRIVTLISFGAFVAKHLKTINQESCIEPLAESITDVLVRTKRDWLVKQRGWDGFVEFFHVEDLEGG
# T2 sequence (O43521 146-166 partner limits assumed): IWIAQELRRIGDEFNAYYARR
# T1 sequence (Q07820 1-327 limits assumed): as the sequence (Q07820 1-327 limits assumed) above
Molecule,selective binding to the MCL-1/BIM heterodimer versus monomer (MCL-1/BIM heterodimer),stability of the antibody at 4° C. [1],IHC reactivity with tissue sample [2],recognition of Mcl-1 Bim-BH3 complex on beads (Mcl-1 Bim-BH3 complex)
"HSMCB (SEQ ID NO: 15, SEQ ID NO: 16): MCL-1/BIM heterodimer antibody, CDRs SEQ ID NO: 9-14, variable heavy chain SEQ ID NO: 15, variable light chain SEQ ID NO: 16 (antibody, V domains shown) VH: MDWIWIMLHLLAAATGLQSQVHLQQSGSELRSPGSSVKLSCKDFDSEVFPIAYMSWVRQKPGHGFEWIGDILPSIGRTIYGEKFEDKATLDADTVSNTAYLELNSLTSEDSAIYYCARQDTYYAMDYWGQGTSVTVSS VL: MHFQVQIFSFLLISASVIMSRGQIVLTQSPAIMSASPGEKVTITCSASSSVSYMHWVQQKPGTSPKLWIYSTSNLASGVPARFRGSGSGTSYSLTISRMEAEDAATYYCQQRSSYPYTFGGGTKLEIK",preferentially react with the heterodimer and not to the monomer,about 2 months,higher reactivity,–
"HSMCB (SEQ ID NO: 7, SEQ ID NO: 8): MCL-1/BIM heterodimer antibody, CDRs SEQ ID NO: 1-6, variable heavy chain SEQ ID NO: 7, variable light chain SEQ ID NO: 8 (antibody, V domains shown) VH: MNFGLSLIFLVLVLKGVQCEVQLVESGGDLVKPGGSLKLSCAVSGFTFSSYAMSWVRQTPAKRLEWVATISSGGFATYYPDTVKGRFTISRDNAKNTLYLQMSSLRSEDTAMYYCARHGGGSYGWFAYWGQGTLVTVSE VL: MLSLAPLLSLLLLCVSDSRAETTVTQSPASLSVATGEKVTIRCITSTDIDDDMNWYQQKPGEPPKLLISEGNTLRPGVPSRFSSSGYGTDFVFTIENTLSEDFADYYCLQSDNMPYTFGGGTKLEIK",preferentially react with the heterodimer and not to the monomer,–,–,recognize the Mcl-1 Bim-BH3 complex at a significant level
